The source of these data is the nanobody polyreactivity screen of Harvey et al. (2022).

A short description of the data set: yeast display, Sf9 membrane polyspecificity reagent, FACS + sequencing; frameworks hold sequencing errors. In short, it runs like this: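 Polyreactivity labels are assigned by the sorting gate from which each nanobody was recovered. The gates were low and high (top ~1%), set on anti-HA fluorescence for expression and streptavidin fluorescence for reagent binding. Before sorting, galactose-induced (36–48 hours) yeast display cells were stained for 1 hour at 4 °C with 10% biotinylated, detergent-solubilized Sf9 membrane reagent.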
In the case of “QVQLVETGGGLVQAGGSLRLSCEASGTIFTYAMGWYRQAPRKERELVAVISWSGASTYYADSVKGRLTISRDNAKNSVYLQMNSLKTEDTAVYYCAVYRYYKLVHLYGFDYWGQGTQVTVSS”, the “polyreactivity (PSR sort gate)” value is “high polyreactivity”.
“QVQLVETGGGLVQAGGSLRLSSAASGIIFKTYAMGWYRQARGKERELLAGIDYSGGGTSYADSVKGRFTISRDNAKNTVYLQMNSLKPEDTAVYYCNAEWWSWGSDSYTYDYPETYDYRGQGTQVTVSS”: the “polyreactivity (PSR sort gate)” value is “low polyreactivity”.
On to “QVQLVETGGGLVQAGGSLSLSCAASGRTFGRYAMGWYRQAPGKERELVAAITWSGGSTYYADSVKGRFTISRDNAKNTVYLQMNSLKPEDTAVYYCAASGYPIYHDDYWGQGTQVTVSS”, for which the “polyreactivity (PSR sort gate)” value is “low polyreactivity”.
The entry for “QVQLVETGGGLVQAGGTLRLAVLPPDLPSTLNDMGWYRQATGKERELVAAITRGGSTNYADSVKGRFTISRDNAKNTVYLLMNSLKPEDTAVYYCAARSAGWRDGGDYWGQGTQVTVSS” is “low polyreactivity”; for “QVQLVETGGGLVQAGGTLRLSCAPSGLIVDLYAMGCYRQAPGKERELVATISGSGGSTYYADSEKGRFTISRDNAKNTVYLQMNSLKPEDTAFYYCAAVSVSSWYDDCGQGTQVTVSS” it is “low polyreactivity”.
As to “QVQLVETGGGLVQAGGTLRLSCAPSGRIFPYNDMGLYRQAPGKERELVAANSSGGTTDYADSVKGRFTISRDNAKNTVYLQMNSLKPEDTAVYYCAATYVYWTWGYDYWGQGTQVTVSS”, the “polyreactivity (PSR sort gate)” value is listed as “low polyreactivity”.
Turning to “QVQLVETGGRLGQAGGSLRLSCAASGRTFGYNAMGWYRQAPGKERELVAAISWSGTRTYYADSVKWRFTISRDNAKNTVYLQRNSLKPEDTAVYYCAARIAVYGGSYGWFDYWGQGTQVTVSS”, the “polyreactivity (PSR sort gate)” value is “high polyreactivity”.
Take “QVQLVETGGVLVQAGGSLRLSCAASGRIFPPNAMGWSRQAPGKEREFVASINRSGGRTYYADSVKGRFTISRDNAKNTVYLQMNSLKPEDTAVYYCAATGGYSCPLGVSWKYEYWGQGNQVTVSS”: the “polyreactivity (PSR sort gate)” value was “low polyreactivity”.
“QVQLVETGGVLVQAGGSLRLSCAASGRTFRYNAMGWYRPAPGKEREFVAAITWGGGSTYYADSVKGRFTISRDNAKNTVYLQMNSLKPEDTAVYYCNADYIGNYQSIYQYDYWGQGTQVTVSS”: the “polyreactivity (PSR sort gate)” value is listed as “low polyreactivity”.
On to “QVQLVETGGVLVQAGGSLSLSCAASGSTFGWYVMGWYRQAPGKERELVAAITYSGDSTYYADSVKGRFTISRDNAKNTVYLQMNSLKPEDTAVYYCAADLSGYGKRYDYWGQGNQVTVSS”, for which the “polyreactivity (PSR sort gate)” value was “low polyreactivity”.
For the sequence “QVQLVETGVGLVQAGGILRLSCAASGSTFTNNGIGWYRQAPGKEREVVATNSWDGDSTYYAYSVKGRFSISRDTAKNTVYLQMNSLKPEDTAVYYCAADEWGSDSALNFEYWGQGTQVTVSS”, the “polyreactivity (PSR sort gate)” value was “low polyreactivity”.
With “QVQLVETRGGLVQAGGSLRLSCAASGSIFRTNVMGRYRQAPGKERELVAAISRRGGSTYYADSVKGRFTISRDNAKNTVYLQMITLKPEDTAVYYCAASSSAYRDDYWGQGTQVTVSS”, the “polyreactivity (PSR sort gate)” value is recorded as “high polyreactivity”.
For the sequence “QVQLVETRGGLVQAGGSLRLTCAASGRTFEGYAMGWYRQAPGKEREFVAAITDGDSTYYADSVKGRFTISRDNAKNTVYLQMNSLKPEDTAVYYCAADRQTWYWYTAYLKYDYWGQGSQVTVSS”, the “polyreactivity (PSR sort gate)” value was “low polyreactivity”.
As to “QVQLVETRGGLVQAGGTLRLSCAASGYTVYRYAKGWYRQAPGKERELVAGISRDGGSTYYADSVKGRFTISRDNAKNTVYLQMNSLNPEDTAVYYCAADKTRYRLGRDYWGQGTQVTVSS”, the “polyreactivity (PSR sort gate)” value is “low polyreactivity”.
With “QVQLVETRGGLVQAGGTLRLSFAASGSTFSYYTMGWYRHAPGTERELVGSIDSSGGSTYYADSVKGRFTISRDNAQNTVYLQMNSLKPEDTAVYYCATGDEWGYDYWGQGTQVTVSS”, the “polyreactivity (PSR sort gate)” value is given as “low polyreactivity”.
As to “QVQLVETVGGLVQAGFSLRLSCAASGFTYGAYAMGLYRQPPGKERELVAAITLRTGGSTYYADSVKGRFTISRDNAKYTVYLQMNSLKPEDTAVYYCAARVGLSPGGYGYWGQGTQVTVSS”, the “polyreactivity (PSR sort gate)” value was “high polyreactivity”.
Under “QVQLVEYGGGLDQAGGSLRLSCAAYGLTFSPYAMGWYRQAPGKEMELVATITIGGSTKYADSVKGRVTISRDNAKNTVYLQMNSLKPEDTAVYYCAVRSGYVTRRYDYWGQGTQVTVSS” stands “low polyreactivity”; under “QVQLVGAGGGLVHAGGSLLLSCAASGFTLGSNAMGWYRQAPGKERALVAASSKSGGSTYYADSVKGRFTISRDNAKNTVYLQMTSLKPEDTAGYYCAARPIHYPPYYYWGQGTQVTVSS”, “high polyreactivity”.
On to “QVQLVKSGGGLVQAGGSLRLSCAASGRIIDRNAMGWYRQAPGKERELVAAISSSGSTNYADSVKGRFTISRDNAKNTVYLQMNSLKPQDTAVYYCAARWRSVLAAGTRPVSFDYWGQGTQVTVSS”, for which the “polyreactivity (PSR sort gate)” value is listed as “low polyreactivity”.
On to “QVQLVKSGGGLVQAGGSLRLSCAASGRTFWGYAMGWYRQAPGKERELVAAISSGGDTTYADSVKGRCTISRDNAKNTVYLQMNSLKPEDTAVYYCAADRWIPVYILGADGYDYWGQGTHVTVSS”, for which the “polyreactivity (PSR sort gate)” value is “low polyreactivity”.
Consider “QVQLVKSGGGLVQAGGSLRLSCAASGSTFRYYVMGWYRQAPGKERELVATISRGGITKYADSVKGRFTSSRDNAKNTVYLQMHSLKPEDTAVYYCNTRGSRQGKFDYWGQGTQVTVSS”, for which the “polyreactivity (PSR sort gate)” value is “high polyreactivity”.
“QVQLVQAGGGLVQAGGSLRLSSAPSGFTLYHYARGWYSQAPGKERQLVASITRSGASTYYPDSVKGRFTISRDNAKYTVYVQMNSLKPEDPAVYYCNKVRYTSSIWTYYDWGQGTQVTVSS”: the “polyreactivity (PSR sort gate)” value is reported as “high polyreactivity”.
Consider “QVQLVQSGGCLVQAGGSLRLSCAASGSTFRYKAMGWYRQAPGKERELVATITGSGGSTYYADSVKGRFTISRDNAKNTVYLQMNSLKAEDTAVYYCNARYKRAAWRYDYWGQGTQVSVSS”, for which the “polyreactivity (PSR sort gate)” value was “high polyreactivity”.
“QVQLVQSGGCLVQAGGSLRLSCAASGSTIGDNAMGWYRQAPGKERELDAAIDYSGGSTRYADSVKGRFTISRDNAKNTVYLQMNSLKPEDTAVYYCAADYASGSRLFPKTLDYWGQGTQVTVSS”: the “polyreactivity (PSR sort gate)” value is “low polyreactivity”.
For the sequence “QVQLVQSGGGLFQAGGSLRLSCAPSGSIFDPNALGWYRQAPAKERELVAAISSGGSRKYSDSVKGRFTISRDNAKNTVYLQMNRLIPEDTAVYYCDASPRQGMYYWGQGTQVTVSS”, the “polyreactivity (PSR sort gate)” value is reported as “high polyreactivity”.
Take “QVQLVQSGGGLVKAGGSLRLRCAASGFTFVKYAMGCYRQAPGKERELIAVISRRGGSTYYADSVKGRFTISRDNAKNTVYLQMNSLKPEDSAVYYCAGVYYLYSAWRYDYWGLGTQVTVSS”: the “polyreactivity (PSR sort gate)” value was “high polyreactivity”.
“QVQLVQSGGGLVQAGGRLSLSCAASGRTIDTYAMGWYRQAPGKERELVAAITRRTYYADSVKGRFTISRDNAKNSVYLQMNSLKPEDTAVDYCAVRFLRKWTSSRHYGYWGQGTQVTLSS”: the “polyreactivity (PSR sort gate)” value is “high polyreactivity”.
The entry for “QVQLVQSGGGLVQAGGSHRLSCAASGFIFPVYAMGWYRQPPGKERELFASMTTGGSTNYADSVKGRFTITRDNAKNSVYLQMNSLKPEDTAVYDCNQDTPASLANQYNYGGQGTQVTVSS” is “low polyreactivity”.
Take “QVQLVQSGGGLVQAGGSLRLSCAAMGWYRQAPGKERELVATITWSGGSTYYADSVKGRFTISRDNAKNTVYLQMNSLKPEDTAVYYCNARATLLSPANTILGYDYWGQGTQVTVSS”: the “polyreactivity (PSR sort gate)” value is reported as “low polyreactivity”.
With “QVQLVQSGGGLVQAGGSLRLSCAASGITFWYYAMGWYRQAPGKERELVAAITGGSTYYADSVKGRFTISRDNAKNTVYLQMNSLKPEDTAVYYCNADSLFEYLDYDYWGQGTQVTVSS”, the “polyreactivity (PSR sort gate)” value was “low polyreactivity”.
The entry for “QVQLVQSGGGLVQAGGSLRLSCAASGRIFRYYGMGWYRQAPGKERELVAAISWNSGSTYYADSVKGRFTISRDNAKNTVYLQMNSLKPEDTAVYYCNKVLFISGYVRNYGEYEYWGQGTQVTVSS” is “high polyreactivity”; for “QVQLVQSGGGLVQAGGSLRLSCAASGRIFVNNAMGWYIQAPGKERELVAAISVSGTTTYYADSVKGRFTISRDNAKNTVYLQMNSLKPEDTAVFYCAAEGSTYQGAPGVYYWGQGTQVTVSS” it is “high polyreactivity”.
In the case of “QVQLVQSGGGLVQAGGSLRLSCAASGRTFGTYAMGWYRQAPGKEREFVAVITNRGGRTYYADSVKGRFTISRDNAKNTVYLQMNSLKPEDTAVYYCTAVGRGWAFDYWGQGTQVTVSS”, the “polyreactivity (PSR sort gate)” value is listed as “high polyreactivity”.
As for “QVQLVQSGGGLVQAGGSLRLSCAASGRTFYYNAMGWYRQAPGKERELVAAITSTGGSTYYADSVKGRFTISRDNAKNTVYLQMNSLKPEDTAVYYCNTLGYTQTRGLDYWGQGTQVTVSS”, the “polyreactivity (PSR sort gate)” value is given as “low polyreactivity”.
As for “QVQLVQSGGGLVQAGGSLRLSCAASGSIFDYNTMGWYRQAPGKERELVATISWSGDSTYYADSVKGRFTISRDNAKNTVYLQMNSLKPEDTAVYYCNADDPPGAPYYDSFDYRGDYWGQGTQVTVSS”, the “polyreactivity (PSR sort gate)” value is “low polyreactivity”.
For “QVQLVQSGGGLVQAGGSLRLSCAASGSTFSQYVMGWYRQARGKERELVAAINKNGGRTYYADSVKGRFTISRDNAKNTVYFQMISLKPEDTAVYYCAADVYGQDDYWGQGTQVTVSS”, the “polyreactivity (PSR sort gate)” value is listed as “high polyreactivity”.
On to “QVQLVQSGGGLVQAGGSLRLSCAAYGSTFVRYVKGWYRQAPGKERELVAAISRRGGSTYYADSVKGRFRISRDNAKNTVFLQMNSLKPEDTAVSYCARTVGYRTLLESDSWGQGTQVTVSS”, for which the “polyreactivity (PSR sort gate)” value was “high polyreactivity”.
“QVQLVQSGGGLVQAGGSLRLSCSASGRIFSAYAMGWYRPAPGKERELVAAITWSGANTDYADSVKGRFTMSRDNAKYTVYLQMNSLKPEDTAVYYCNASVGRDSAYDYWGQGTQVTVSS”: the “polyreactivity (PSR sort gate)” value is recorded as “low polyreactivity”.
For the sequence “QVQLVQSGGVLVQAGGSLRLSCAASGFIFNTYAMGWYRPAPGKERELVAAIDGRGGTTYYADSVKGRFTISRDYAKNTVYLQMHSLKPEDTAVYYCAARYQRLGIRYGYWGQGTQVTVSS”, the “polyreactivity (PSR sort gate)” value is “high polyreactivity”.
Consider “QVQLVQSGVGLDQAGGSLRLSCAASGSISSQNAMGWYRQAPGKESELVAAISWIGGSTYYADSVKGRFTISRDNAKNTVYLQMNSLKPEDTAVYYCAKDRASGFKYYYWGLGTQVTVSS”, for which the “polyreactivity (PSR sort gate)” value is “low polyreactivity”.
For the sequence “QVQLVQSGVGLVQAGGSLRLSCAASGSIFSYYVMGWYRQAPGKERELVAAISWSGGSTYYADSVKGRFTISRDNAKNTVYLQMNSLKPEDTAVYYCAAGTYPYYWVQGTQVTVSS”, the “polyreactivity (PSR sort gate)” value is on record as “low polyreactivity”.
